Measurements as given in US11015206B2, “Compositions and methods comprising sequences having hydroxyphenylpyruvate dioxygenase (HPPD) activity” (PIONEER HI-BRED INTERNATIONAL, INC., priority 2014, dated 2021).
Residue numbers refer to the chain shown, from its start. Names and notes keep the numbering of the source. Blank lines part the entries; values can stand above or below the molecule they belong to.

Experiments:
Assay type in all cases: biochemical, Z. mays
[1] = tested on: 4-hydroxyphenylpyruvate dioxygenase (HPPD); experiment: ON rate ratio: HPPD reaction rate with vs without inhibitor in the 70 to 90 second interval; conditions: Table 5; tembotrione
In short: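 Time courses of HPPD reactions, 60 or 120 nM enzyme with 100 μM HPP substrate, run with and without 4 μM inhibitor (e.g. mesotrione, tembotrione). Value is the rate with inhibitor over rate without, taken over 70–90 s; higher ratio reflects slower kON.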

[2] = tested on: 4-hydroxyphenylpyruvate dioxygenase (HPPD); experiment: HPPD activity coupled assay with HGD; substrate saturation kinetic parameters (kcat, KM); conditions: Table 6; for kcat: single substitutions in SEQ ID NO:2
Experimental: Wild type and shuffled variant genes were cloned into pVER7062, a modified version of pET24a(+)(Novagen), which places six histidine residues at the N-terminus of the expressed protein. Vectors were electroporated into E. coli host strain BL21(DE3). Cells were grown at 30 C in rich medium such as 2×YT containing the selection antibiotic, kanamycin. At a density of about 0.6 OD600, IPTG was added to 0.2 mM, the temperature was reduced to 16 C and growth continued for another 24 hrs. Cells were harvested by centrifugation and stored at −80 C. Cell pellets were lysed in BPER (Pierce) protein extraction reagent containing 0.2 mg/ml lysozyme, 1 mM dithiothreitol, protease inhibitor cocktail (Sigma, bacterial cocktail) and endonuclease. Insoluble cellular debris was removed by centrifugation. HPPD protein was purified from the soluble protein solution by affinity chromatography on the nickel form of nitrilotriacetic acid (Ni-NTA) resin (Qiagen). Protein concentrations were determined by the Bradford method, as supplied by Bio-Rad.
HPPD catalyzes the conversion of 4-hydroxyphenylpyruvate (HPP) to homogentisate (FIG. 17). […] However, the product of the ensuing reaction in tyrosine metabolism, maleylacetoacetate, absorbs strongly at 320 nm. Furthermore, the enzyme catalyzing that reaction is also a dioxygenase having similar mechanism and buffer requirements as HPPD, making homogentisate dioxygenase (HGD) an ideal partner in a coupled assay, as shown.
The HDG gene from Pseudomonas aeruginosa (Amaya (2004) Arch Biochem Biophys 421, 135-142) was cloned into pVER7062 and electroporated into E. coli strain BL21(DE3). The enzyme was produced by methods similar to those described for HPPD. The purified enzyme has a KM for homogentisate of 23 μM and a kcat of 100/sec, properties highly suited for instantly converting the homogentisate produced by HPPD to maleylacetoacetate.
HPPD activity was measured by placing an aliquot (e.g., 6 μl) of the substrate HPP at 50-fold the desired final concentration into the wells of a low UV-absorbing assay plate. Reactions were started by adding a mixture (e.g., 294 μl) containing 25 mM Hepes, pH 7, 2 mM ascorbate, 10 μM FeSO4, 1 to 100 μM HPP, 50 nM HGD and 5 to 240 nM HPPD. Absorbance at 320 nm was monitored continuously in a plate-reading spectrophotometer (Spectramax, Molecular Devices).
The catalytic performance of wild-type HPPD and variants generated by shuffling was assessed by determining the substrate saturation kinetic parameters. The Michaelis-Menten kinetics protocol of the Spectramax software was customized for HPP concentrations ranging from 3.33 μM to 100 μM. Reaction rates were measured as described above for each concentration of HPP. The software returns values of KM and Vmax using the Lineweaver-Burke transformation of the Michaelis-Menten equation.

[3] = tested on: 4-hydroxyphenylpyruvate dioxygenase (HPPD); experiment: Insensitivity parameter (ON × OFF) and trait fitness (ON × OFF × kcat/KM or × kcat); conditions: for ON × OFF × kcat, Value / ON × OFF × kcat, Fold vs wt / ON × OFF, fold vs wt / ON × OFF (parameters with tembotrione): Table 5, tembotrione; for ON × OFF × kcat, Fold vs wt / ON × OFF, fold vs wt: fold vs maize wild type HPPD; for ON × OFF (parameters with tembotrione): insensitivity parameter
In short: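 Calculated, not measured directly: ON rate ratio × OFF rate ratio gives an insensitivity parameter serving as a KD surrogate.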

[4] = tested on: 4-hydroxyphenylpyruvate dioxygenase (HPPD); experiment: OFF rate ratio: release of inhibitor from pre-formed enzyme-inhibitor complex; conditions: Table 5; tembotrione
In short: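 HPPD (7.2 μM) pre-incubated 1 h at RT with inhibitor (8 μM), then diluted into 25 mM Hepes pH 7, 2 mM ascorbate, 10 μM FeSO4, 100 μM HPP, 50 nM HGD; A320 followed 12 min. Ratio = steady-state rate with inhibitor over initial rate of inhibitor-free enzyme.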

[5] = tested on: 4-hydroxyphenylpyruvate dioxygenase (HPPD); experiment: Estimate of kcat from initial rate at saturating hydroxyphenylpyruvate without inhibitor (ON rate ratio assay); conditions: Table 5; single substitutions in Round 7 variant 9070 (SEQ ID NO:2); estimate from initial rate at saturating hydroxyphenylpyruvate without inhibitor
In short: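 Reactions used 60 or 120 nM HPPD and saturating 100 μM hydroxyphenylpyruvate without inhibitor. kcat was estimated from the initial rate at the known enzyme concentration.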

[6] = DKN (diketonitrile form of isoxaflutole)
[7] = DKN (isoxaflutole diketonitrile)

ON ratio (parameters with tembotrione) [1]: 0.76
Insensitivity parameter, ON × OFF [3, 6]: 0.33
Insensitivity parameter, ON × OFF ([3]; Mesotrione, Table 6): 0.48
Insensitivity parameter, ON × OFF ([3]; Sulcotrione): 0.59
ON × OFF, fold vs wt [3]: 27.9
ON × OFF (parameters with tembotrione) [3]: 0.14
Insensitivity parameter, ON × OFF ([3]; Tembotrione): 0.25
Insensitivity parameter, ON × OFF ([3]; Topramezon): 0.32
OFF ratio (parameters with tembotrione) [4]: 0.19
B1: 214N: single substitution S214N in SEQ ID NO:2 (protein)
chain: MGPTPTATAAGAAVAAASAAEQAAFRLVGHRNFVRFNPRSDRFQTLAFHHVELWCADAASAAGRFSFALGVPLAARSDLSTGNSAHASLLLRSGSLSLLFTAPYAHGADAATAALPSFSAAAARRFAADHGLAVRAVALRVADAEDAFRASVAAGARPAFGPVDLGRGFRLAEVELYGDVVLRYVSYPDGAAGEPFLPGFEGVASPGAADYGLNRFDHIVGNVPELAPAAAYMAGFTGFHEFAEFTTEDVGTTESGLNSMALANNSENVLLPLNEPVHGTKRRSQIQTFLDHHGGPGVQHIALASDDVLRTLREMRARSAMGGFEFLPPPLSDYYDGVRRCAGDVLTEAQINECQELGVMVDRDDQGVLLQIFTKPVGDRPTFFLEIIQRIGCMEKDEKGQEYQKGGCGGFGKGNFGQLFKSIEDYEKSLEAKQAAAAATAQGS
modifications: Zea mays variant form created by artificial means.
Km [2]: 3.62 µM
kcat [2]: 1.41 s⁻¹
ON × OFF × kcat/km fold vs Round 7, variant 9070 [3, 7]: 1.4
ON × OFF × kcat/km fold vs Round 7, variant 9070 ([3]; Sulco (sulcotrione)): 1.1
ON × OFF × kcat, Value [3]: 5.04
ON × OFF × kcat, Fold vs wt [3]: 4.71
ON × OFF × kcat/km fold vs Round 7, variant 9070 ([3]; Topra (topramezone)): 1.2
ON × OFF × kcat/km fold vs Round 7, variant 9070 ([3]; meso (mesotrione)): 1.1
ON × OFF × kcat/km fold vs Round 7, variant 9070 ([3]; tembo (tembotrione)): 1.3
kcat [5]: 0.59 s⁻¹

ON ratio (parameters with tembotrione) [1]: 0.75
Insensitivity parameter, ON × OFF [3, 6]: 0.21
Insensitivity parameter, ON × OFF ([3]; Mesotrione, Table 6): 0.44
Insensitivity parameter, ON × OFF ([3]; Sulcotrione): 0.53
ON × OFF, fold vs wt [3]: 30.0
ON × OFF (parameters with tembotrione) [3]: 0.15
Insensitivity parameter, ON × OFF ([3]; Tembotrione): 0.16
Insensitivity parameter, ON × OFF ([3]; Topramezon): 0.24
OFF ratio (parameters with tembotrione) [4]: 0.21
B2: 356R: single substitution E356R in SEQ ID NO:2 (protein)
chain: B1 chain with N214S, E356R
modifications: Zea mays variant form created by artificial means.
Km [2]: 2.89 µM
kcat [2]: 1.32 s⁻¹
ON × OFF × kcat/km fold vs Round 7, variant 9070 [3, 7]: 1.1
ON × OFF × kcat/km fold vs Round 7, variant 9070 ([3]; Sulco (sulcotrione)): 1.1
ON × OFF × kcat, Value [3]: 5.97
ON × OFF × kcat, Fold vs wt [3]: 5.58
ON × OFF × kcat/km fold vs Round 7, variant 9070 ([3]; Topra (topramezone)): 1.1
ON × OFF × kcat/km fold vs Round 7, variant 9070 ([3]; meso (mesotrione)): 1.1
ON × OFF × kcat/km fold vs Round 7, variant 9070 ([3]; tembo (tembotrione)): 1.2
kcat [5]: 0.652 s⁻¹

ON ratio (parameters with tembotrione) [1]: 0.75
Insensitivity parameter, ON × OFF [3, 6]: 0.23
Insensitivity parameter, ON × OFF ([3]; Mesotrione, Table 6): 0.44
Insensitivity parameter, ON × OFF ([3]; Sulcotrione): 0.54
ON × OFF, fold vs wt [3]: 28.7
ON × OFF (parameters with tembotrione) [3]: 0.15
Insensitivity parameter, ON × OFF ([3]; Tembotrione): 0.16
Insensitivity parameter, ON × OFF ([3]; Topramezon): 0.22
OFF ratio (parameters with tembotrione) [4]: 0.20
B3: 340K: single substitution R340K in SEQ ID NO:2 (protein)
chain: B1 chain with N214S, R340K
modifications: Zea mays variant form created by artificial means.
Km [2]: 2.41 µM
kcat [2]: 1.22 s⁻¹
ON × OFF × kcat/km fold vs Round 7, variant 9070 [3, 7]: 2.2
ON × OFF × kcat/km fold vs Round 7, variant 9070 ([3]; Sulco (sulcotrione)): 1.3
ON × OFF × kcat, Value [3]: 6.56
ON × OFF × kcat, Fold vs wt [3]: 6.13
ON × OFF × kcat/km fold vs Round 7, variant 9070 ([3]; Topra (topramezone)): 1.1
ON × OFF × kcat/km fold vs Round 7, variant 9070 ([3]; meso (mesotrione)): 1.3
ON × OFF × kcat/km fold vs Round 7, variant 9070 ([3]; tembo (tembotrione)): 1.2
kcat [5]: 0.745 s⁻¹
